Measurements reported in IntAct's records for PubMed 33758649.

B1: Protein PALS1 (Homo sapiens), Q8N3R9 (parent)
chain: MTTSHMNGHVTEESDSEVKNVDLASPEEHQKHREMAVDCPGDLGTRMMPIRRSAQLERIRQQQEDMRRRREEEGKKQELDLNSSMRLKKLAQIPPKTGIDNPMFDTEEGIVLESPHYAVKILEIEDLFSSLKHIQHTLVDSQSQEDISLLLQLVQNKDFQNAFKIHNAITVHMNKASPPFPLISNAQDLAQEVQTVLKPVHHKEGQELTALLNTPHIQALLLAHDKVAEQEMQLEPITDERVYESIGQYGGETVKIVRIEKARDIPLGATVRNEMDSVIISRIVKGGAAEKSGLLHEGDEVLEINGIEIRGKDVNEVFDLLSDMHGTLTFVLIPSQQIKPPPAKETVIHVKAHFDYDPSDDPYVPCRELGLSFQKGDILHVISQEDPNWWQAYREGDEDNQPLAGLVPGKSFQQQREAMKQTIEEDKEPEKSGKLWCAKKNKKKRKKVLYNANKNDDYDNEEILTYEEMSLYHQPANRKRPIILIGPQNCGQNELRQRLMNKEKDRFASAVPHTTRSRRDQEVAGRDYHFVSRQAFEADIAAGKFIEHGEFEKNLYGTSIDSVRQVINSGKICLLSLRTQSLKTLRNSDLKPYIIFIAPPSQERLRALLAKEGKNPKPEELREIIEKTREMEQNNGHYFDTAIVNSDLDKAYQELLRLINKLDTEPQWVPSTWLR
partner: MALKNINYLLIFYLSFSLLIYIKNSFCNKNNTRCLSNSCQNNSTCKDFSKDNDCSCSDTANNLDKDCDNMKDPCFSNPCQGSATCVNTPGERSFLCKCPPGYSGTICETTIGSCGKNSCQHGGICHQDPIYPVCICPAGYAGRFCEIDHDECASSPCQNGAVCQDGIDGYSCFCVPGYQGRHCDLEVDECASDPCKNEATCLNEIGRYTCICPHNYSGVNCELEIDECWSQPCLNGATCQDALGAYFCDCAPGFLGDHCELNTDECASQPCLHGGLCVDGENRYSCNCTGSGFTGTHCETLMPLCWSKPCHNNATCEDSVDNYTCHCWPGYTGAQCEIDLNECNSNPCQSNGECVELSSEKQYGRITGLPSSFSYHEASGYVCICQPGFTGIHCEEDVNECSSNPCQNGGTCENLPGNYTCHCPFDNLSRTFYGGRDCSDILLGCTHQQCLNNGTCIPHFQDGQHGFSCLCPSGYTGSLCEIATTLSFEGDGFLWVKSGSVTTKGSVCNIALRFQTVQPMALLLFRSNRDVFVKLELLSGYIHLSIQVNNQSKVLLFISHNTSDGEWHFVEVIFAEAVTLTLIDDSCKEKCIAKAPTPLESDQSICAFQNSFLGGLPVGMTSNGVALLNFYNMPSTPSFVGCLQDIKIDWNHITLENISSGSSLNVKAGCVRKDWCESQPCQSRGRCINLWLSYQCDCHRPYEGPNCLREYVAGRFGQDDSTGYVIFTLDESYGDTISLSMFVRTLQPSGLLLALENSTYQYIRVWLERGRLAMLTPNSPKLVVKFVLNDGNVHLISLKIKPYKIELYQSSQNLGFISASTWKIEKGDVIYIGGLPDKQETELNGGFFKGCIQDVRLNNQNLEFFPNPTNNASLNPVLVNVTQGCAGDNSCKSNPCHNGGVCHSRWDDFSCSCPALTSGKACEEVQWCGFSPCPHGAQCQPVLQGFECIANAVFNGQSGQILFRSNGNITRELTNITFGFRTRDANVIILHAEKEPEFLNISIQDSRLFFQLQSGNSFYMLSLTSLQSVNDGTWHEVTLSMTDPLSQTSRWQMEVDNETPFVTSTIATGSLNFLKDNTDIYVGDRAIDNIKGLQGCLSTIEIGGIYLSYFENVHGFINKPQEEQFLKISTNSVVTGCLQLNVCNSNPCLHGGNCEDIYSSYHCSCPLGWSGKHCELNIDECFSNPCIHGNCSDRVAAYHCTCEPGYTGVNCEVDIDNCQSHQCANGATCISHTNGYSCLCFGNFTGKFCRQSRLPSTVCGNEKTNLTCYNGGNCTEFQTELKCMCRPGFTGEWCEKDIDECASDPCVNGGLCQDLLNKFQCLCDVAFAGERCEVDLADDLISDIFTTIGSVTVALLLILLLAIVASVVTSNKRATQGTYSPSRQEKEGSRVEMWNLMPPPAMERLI

Variants of: B1
Details: with crum1_human CRB1, P82279

Variant	effect of a mutation on the interaction
F318W	decreasing interaction strength
